Reference: patent publication US20080113421A1, “Stabilizing proteins against denaturation and inactivation by charged detergents using chemical modifications, including modifications that increase net charge” (President and Fellows of Harvard College, priority 2006, published 2008)

Columns and labels:
Type in all cases: physicochemical
[1] = Unfolding (denaturation) of protein in SDS in Tris-Gly buffer, monitored by DNSA fluorescence
Description: Monitoring unfolding of BCA and BCA-Ac18 was performed as follows. The proteins (200 nM) were incubated in different concentrations of SDS in Tris-Gly buffer. A 100 microliter aliquot of protein-SDS solution was mixed with 100 microliters of DNSA solution (30 micromolar) with the same concentration of SDS, and measured the intensity of fluorescence (Perkin-Elmer LS50B spectrometer, λex=280 nm, λem=460 nm) as a function of time. The denaturation of BCA was continuously monitored in concentrations of SDS above 4 mM. The rate constants were determined for denaturation by fitting the intensity vs. time data to FU=FUmaxe^−kt+FUmin. Unfolding experiments at 37° C. were performed similarly, with samples stored in a dry bath incubator (Fisher Scientific).
The kinetics of unfolding were determined as follows. The rates of denaturation of BCA and BCA-Ac18 were measured by incubating the protein (200 nM) in solutions of different concentrations of SDS. Immediately prior to the measurement, an aliquot of solution containing protein and SDS was mixed with a solution containing DNSA and the same concentration of SDS; this protocol minimized the possibility that DNSA might stabilize the native conformation of the protein, and influence the rate of its denaturation. When BCA was denatured in concentrations of SDS of 4 mM and higher, DNSA was added to the original, denaturing solution because the rate of denaturation was too fast to follow with manual mixing of aliquots of protein and DNSA. It was observed that DNSA, when present with the protein in the denaturing solution, reduced the rates of denaturation by factors of about 2-10.
FIG. 1 plots the fluorescence of DNSA, normalized to the signal at t=0, as a function of time of incubation of samples of BCA and BCA-Ac18 in various concentrations of SDS. The decrease in the intensity of fluorescence of DNSA, and thus in the amount of folded protein, followed first-order kinetics. Denaturation of proteins with surfactants probably proceeds through intermediates, but when using a marker that is specific to the folded active site of carbonic anhydrase, transitions beyond the initial unfolding of the three-dimensional structure of the protein were not detected.
The tables list the half-lives (t1/2) for denaturation of BCA and BCA-Ac18 at several concentrations of SDS. The denaturation of BCA at 4 mM occurred very rapidly, and data are not shown to avoid overlap with data at 3.5 mM. The error bars represent the difference between the average and the largest and smallest values measured from at least three replicate measurements.

[2] = Refolding after 1 week incubation at intermediate SDS concentrations (aggregation test); settings: denatured in 10 mM SDS, incubated 1 week at intermediate SDS, diluted into 0.1 mM SDS
Description: Aggregation was tested by renaturing the proteins from a denatured state at 10 mM SDS to 0.1 mM SDS, but through an incubation step at intermediate concentrations of SDS, instead of renaturing by rapid dilution from 10 mM SDS to 0.1 mM SDS directly (i.e., 10 mM SDS→2.5 mM SDS→0.1 mM SDS instead of 10 mM SDS→0.1 mM SDS). For incubation, concentrations of SDS were chosen in which aggregation was believed to occur on a similar or shorter time scale as refolding. The protein-SDS complex was diluted from 10 mM SDS to 2.5-0.7 mM SDS, the proteins were incubated for 1 week at those concentrations, and the samples further diluted to 0.1 mM SDS to initiate fast refolding.
The fluorescence signal from DNSA was normalized to that of refolded protein by rapid dilution from 10 to 0.1 mM SDS.

[3] = Net charge of protein (capillary electrophoresis, charge ladder)
Description: BCA-Ac18 was synthesized by reacting the lysine residues of BCA with acetic anhydride in 100 mM HEPES buffer, pH 8.2. The N-terminus of BCA was acetylated posttranslationally. The final product contained ˜90% of BCA-Ac18 and 10% of BCA-Ac17, as determined by peak areas in an electropherogram from separation by capillary electrophoresis. The net charge of BCA in Tris-Gly buffer was about −3, and the net charge of BCA-Ac18 was about −19. It is believed that the difference in charge between BCA and BCA-Ac18 was less than 18 full units of charge due to charge regulation-adjustment of protonation states of other ionizable groups on the protein to counteract the increasing electrostatic potential on its surface.
For any charge ladder of BCA, as the number of modifications (n) increases, the total charge on the protein becomes more negative, and the surface of the protein becomes more hydrophobic due to conversion of NH3^+ groups to NHCOR groups. Native BCA has a charge of ˜−2.9 at pH 8. The charge on the early rungs of the ladder increased linearly with the number of acylations; each rung adds an additional charge of ˜−0.9. Therefore, for example, BCA-Ac8 has a charge of ˜−10. The later rungs of the ladder may differ by <0.9 units of charge. Using the Linderstrom-Lang model of cooperativity in proton binding, the charge on BCA-Ac18 was calculated to be −19. The mobility of a given rung of BCA-Acn may have nearly the same mobility as the corresponding rung of BCA-Hexn. Thus, the charges of the BCA-Hexn may be indistinguishable from those of BCA-Acn for a given rung number. (Small deviations in mobility between later rungs of the two ladders may be due either to a change in charge or a change in drag between the two ladders. It can be assumed that any differences in the mobilities are due to additional drag from the hexanoyl groups relative to the acetyl groups.

bovine carbonic anhydrase II [BCA]
t1/2 for denaturation ([1]; 4 mM SDS, Tris-Gly buffer, with DNSA present during denaturation): 15 s
t1/2 for denaturation ([1]; 10 mM SDS, Tris-Gly buffer): < 5 s
denaturation in low concentrations of SDS ([1]; SDS below 2 mM, long (~1 month) periods of time): no denaturation
concentration of SDS at which the protein denatures ([1]; Tris-Gly buffer, CMC 4.3 mM): ≥ 2.5 mM
t1/2 for refolding [2]: 10.8 ± 0.6 min
net charge ([3]; Tris-Gly buffer): about −3
charge ([3]; pH 8): ~−2.9
